Experimental data as given in article PMC5505246, “Assembly of Francisella novicida Cpf1 endonuclease in complex with guide RNA and target DNA”.

Molecular target: FnCpf1 (Cas12a) (Francisella novicida U112, UniProt A0Q7Q2 1-1300)
Test: native PAGE / preparative native electrophoresis; 5 mM MgCl2; protein:RNA:DNA 1:1.3:1.7; Reconstitution: 81 mM KCl, 38 mM bicine pH 8.0, 5 mM MgCl2; protein + crRNA 30 min at 293 K, then DNA duplex 60 min at 368 K (so in the source); complex in 150 mM KCl, 50 mM bicine pH 8.0, 0.5 mM TCEP
Details: protein: recombinant; tags: C-terminal His6; crRNA-guided DNA target

Chain of FnCpf1 (Cas12a) (A0Q7Q2 whole entry): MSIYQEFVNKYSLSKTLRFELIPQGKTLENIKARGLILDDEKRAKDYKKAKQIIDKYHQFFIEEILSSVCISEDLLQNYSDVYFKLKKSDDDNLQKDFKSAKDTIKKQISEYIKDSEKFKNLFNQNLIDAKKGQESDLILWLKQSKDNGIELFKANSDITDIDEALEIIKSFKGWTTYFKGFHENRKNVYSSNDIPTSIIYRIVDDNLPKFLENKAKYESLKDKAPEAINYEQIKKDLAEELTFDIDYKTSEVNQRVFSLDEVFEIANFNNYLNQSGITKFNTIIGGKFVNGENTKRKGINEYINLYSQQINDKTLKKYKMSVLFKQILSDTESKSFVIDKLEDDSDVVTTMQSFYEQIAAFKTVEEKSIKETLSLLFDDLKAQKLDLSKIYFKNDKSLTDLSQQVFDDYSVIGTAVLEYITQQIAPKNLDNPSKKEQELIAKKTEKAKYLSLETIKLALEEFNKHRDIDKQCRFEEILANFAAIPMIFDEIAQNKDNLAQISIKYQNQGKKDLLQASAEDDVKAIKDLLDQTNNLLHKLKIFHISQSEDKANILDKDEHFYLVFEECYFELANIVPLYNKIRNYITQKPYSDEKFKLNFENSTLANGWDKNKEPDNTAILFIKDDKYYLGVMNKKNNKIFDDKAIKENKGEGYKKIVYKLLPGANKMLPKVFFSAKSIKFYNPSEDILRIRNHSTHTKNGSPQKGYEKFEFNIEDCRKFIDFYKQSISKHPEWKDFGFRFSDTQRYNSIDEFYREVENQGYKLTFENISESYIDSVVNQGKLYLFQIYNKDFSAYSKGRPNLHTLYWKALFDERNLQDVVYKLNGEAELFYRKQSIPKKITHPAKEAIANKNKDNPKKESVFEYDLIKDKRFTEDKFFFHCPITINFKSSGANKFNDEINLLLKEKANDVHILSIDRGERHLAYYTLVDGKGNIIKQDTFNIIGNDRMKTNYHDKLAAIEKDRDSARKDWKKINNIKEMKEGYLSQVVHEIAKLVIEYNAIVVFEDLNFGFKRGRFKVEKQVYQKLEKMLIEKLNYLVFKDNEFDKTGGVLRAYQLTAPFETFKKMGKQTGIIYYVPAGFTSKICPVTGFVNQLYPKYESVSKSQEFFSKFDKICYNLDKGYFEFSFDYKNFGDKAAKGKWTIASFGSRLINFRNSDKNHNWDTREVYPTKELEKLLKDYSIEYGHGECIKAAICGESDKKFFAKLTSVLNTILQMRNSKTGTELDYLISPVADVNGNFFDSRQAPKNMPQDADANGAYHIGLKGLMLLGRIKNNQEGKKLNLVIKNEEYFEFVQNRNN

B1: crRNA + 31-nt dsDNA target (target and nontarget strands) (mixed)
RNA: AAUUUCUACUGUUGUAGAUGAGAAGUCAUUUAAUAAGGCCACU
DNA 1: GCAGTGGCCTTATTAAATGACTTCTCTAACG
DNA 2: CGTTAGAGAAGTCATTTAATAAGGCCACTGC
binding result: binds
